Measurements as given in patent US12269859B2, “Synthetic immune receptors and methods of use thereof” (Angeles Therapeutics, Inc., priority 2016, dated 2025).

Test system: target antigen-expressing cell line
Experiment: Jurkat NFAT-GFP assay, coculture with target cell lines expressing the respective target antigen (summary Table 10A)
Format: cell-based, human
Parameters: key: The signs +/−, +, 2+ etc. after the name of the cell lines indicate the relative degree of positivity on the Jurkat-NFAT-GFP assay as measured by the % GFP positive cells; +: relative degree of positivity on the Jurkat-NFAT-GFP assay as measured by the % GFP positive cells; 2+: relative degree of positivity on the Jurkat-NFAT-GFP assay as measured by the % GFP positive cells
Conditions: relative % GFP positive cells; for NFAT-GFP ASSAY Positive Cell lines: HepG2: SIR-expressing Jurkat-NFAT-GFP cells cocultured with HepG2
Description: (B) Induction of NFAT promoter driven GFP expression. The control vector- and SIR-expressing Jurkat-NFAT-GFP cocultured for 4-24 hours with the target antigen-expressing cell line (described above) and their ability to bind to the target antigen is assayed by measuring induction of GFP expression using Flow Cytometry. Cellular supernatant is collected and assayed for the induction of cytokines (e.g., IL2).
Jurkat NFAT-GFP Assay For Synthetic Immune Receptors. The Jurkat-NFAT-GFP cells are engineered in such a way that the IL-2 promoter, which carries NFAT binding sites, is cloned upstream of the GFP gene. These cells have been used to study signaling via TCR and CAR. The different SIRs were stably expressed in Jurkat NFAT-GFP cells by lentiviral mediated gene transfer, followed by selection with puromycin. The SIR-expressing Jurkat-NFAT-GFP cells were cocultured with the target cells at E:T ratio of approximately 1:2 for approximately 4 hours to 18 hours. When the interaction between SIRs and their target antigen results in activation of the NFAT pathway, GFP expression is induced.
Induction of GFP expression by coculturing of Jurkat-NFAT-GFP cells expressing different SIR constructs and the different target cells was studied essentially as described previously (Wu, Roybal, Puchner, Onuffer, & Lim, 2015). GFP expression was monitored by FACS analysis. A few representative examples of this assay are shown in the FIG. 13A-B. In panel A, control Jurkat-NFAT-GFP cells or those expressing SIRs targeting CD19 (clone ID 051716-I08), MPL (Clone ID: 040716-A07) and BCMA (Clone ID: 011116-A07) were incubated with RAJI (top), HEL (middle) or U266 (bottom) cells, respectively. […] In panel B, Jurkat cells expressing SIR targeting CDH6 (Clone ID: 051716-J05), CD276 (Clone ID: 050516-Q06) and Her2/neu (Clone ID: 050516-I03) were incubated with SKOV3 (top) and […] (middle and bottom) cells, respectively. […] The Jurkat-NFAT-GFP cells were engineered to express different SIRs targeting other antigens and the experiment repeated upon coculture with the target cells expressing their respective target antigen. The Jurkat-NFAT-GFP (parental) cells were used as control. The names of different SIRs, their SEQ ID NOs, component antigen binding domains and TCR chains can be determined by reference to Tables 7A-7H. A SIR is considered positive in the assay in case the SIR expressing Jurkat-NFAT-GFP cells show greater % GFP positive cells when cultured with the target cell line as compared to parental Jurkat-NFAT-GFP cells. […] The signs +/−, +, 2+ etc. after the name of the cell lines indicate the relative degree of positivity on the Jurkat-NFAT-GFP assay as measured by the % GFP positive cells after culture of the SIR expressing Jurkat-NFAT-GFP cells with that cell line. […] In addition, great diversity of response against the same target cell line is observed with Jurkat cells expressing SIRs containing different antigen binding domains targeting the same antigen (e.g., SIRs having antigen binding domains derived form different CD19 antibodies) even when the SIRs share the same TCR chains and linkers. Finally, Jurkat cells expressing SIRs targeting different antigens (e.g. CD19 vs CD20) show a diversitiy of response when exposed to the same target cell line. Thus, a diverse immune response can be generated against a single target cell by combining SIRs with different TCR chains, linkers, antigen binding domains and target specificity. Table 10A also summarizes the results of GLuc based T cell cytotoxicity assay observed with different SIRs when exposed to their target cell lines. […]

B1: 012417-H04 (protein)
chain: MALPVTALLLPLALLLHAARPLEGKPIPNPLLGLDSTGSGEDLKNVFPPEVAVFEPSKAEIAHTQKATLVCLATGFYPDHVELSWWVNGKEVHSGVCTDPQPLKEQPALNDSRYCLSSRLRVSATFWQNPRNHFRCQVQFYGLSENDEWTQDRAKPVTQIVSAEAWGRADCGITSASYHQGVLSATILYEILLGKATLYAVLVSALVLMAMVKRKDSRGRAKRSGSGATNFSLLKQAGDVEENPGPTSMALPVTALLLPLALLLHAARPDIVMTQSPATLSLSPGERATLSCRSSKSLQNVNGNTYLYWFQQKPGQSPQLLIYRMSNLNSGVPDRFSGSGSGTEFTLTISSLEPEDFAVYYCMQHLEYPITFGAGTKLEIKGGGGSGGGGSGGGGSEVQLVESGGGLVKPGGSLKLSCAASGYTFTSYVMHWVRQAPGKGLEWIGYINPYNDGTKYNEKFQGRVTISSDKSISTAYMELSSLRSEDTAMYYCARGTYYYGTRVFDYWGQGTLVTVSSTREQKLISEEDGSGIQNPDPAVYQLRDSKSSDKSVCLFTDFDSQTNVSQSKDSDVYITDKCVLDMRSMDFKSNSAVAWSNKSDFACANAFNNSIIPEDTFFPSSDVPCDVKLVEKSFETDTNLNFQNLSVIGFRILLLKVAGFNLLMTLRLWSSRAKRSGSGVKQTLNFDLLKLAGDVESNPGPSRGHMTEYKPTVRLATRDDVPRAVRTLAAAFADYPATRHTVDPDRHIERVTELQELFLTRVGLDIGKVWVADDGAAVAVWTTPESVEAGAVFAEIGPRMAELSGSRLAAQQQMEGLLAPHRPKEPAWFLATVGVSPDHQGKGLGSAVVLPGVEAAERAGVPAFLETSAPRNLPFYERLGFTVTADVEVPEGPRTWCMTRKPGA
SIR-expressing Jurkat-NFAT-GFP cells cocultured with NALM6
  NFAT-GFP ASSAY Positive Cell lines: NALM6: (+)
SIR-expressing Jurkat-NFAT-GFP cells cocultured with RAJI
  NFAT-GFP ASSAY Positive Cell lines: RAJI: RAJI (2+), NALM6

B2: 021317-E02 (protein)
chain: MALPVTALLLPLALLLHAARPLEGKPIPNPLLGLDSTGSGEDLKNVFPPEVAVFEPSKAEIAHTQKATLVCLATGFYPDHVELSWWVNGKEVHSGVCTDPQPLKEQPALNDSRYCLSSRLRVSATFWQNPRNHFRCQVQFYGLSENDEWTQDRAKPVTQIVSAEAWGRADCGITSASYHQGVLSATILYEILLGKATLYAVLVSALVLMAMVKRKDSRGRAKRSGSGATNFSLLKQAGDVEENPGPTSMALPVTALLLPLALLLHAARPQSVLTQPPSVSGAPGQRVTISCTGSSSNIGAGYDVHWYQQLPGTAPKLLIFGNSNRPSGVPDRFSGFKSGTSASLAITGLQAEDEADYFCQSYDSSLSGSGVFGTGTKVTVLGGGGGSGGGGSGGGGSQMQLVQSGGGLVQPGRSLRLSCAASGFTFDDYAMHWVRQAPGKGLEWVSGISWNSGSIGYADSVKGRFTISRDNAKNSLYLQMNSLRAEDTALYYCAKDIHSGSYYGLLYYAMDVWGQGTTVTVSSTREQKLISEEDGSGIQNPDPAVYQLRDSKSSDKSVCLFTDFDSQTNVSQSKDSDVYITDKCVLDMRSMDFKSNSAVAWSNKSDFACANAFNNSIIPEDTFFPSSDVPCDVKLVEKSFETDTNLNFQNLSVIGFRILLLKVAGFNLLMTLRLWSSRAKRSGSGVKQTLNFDLLKLAGDVESNPGPSRGHMTEYKPTVRLATRDDVPRAVRTLAAAFADYPATRHTVDPDRHIERVTELQELFLTRVGLDIGKVWVADDGAAVAVWTTPESVEAGAVFAEIGPRMAELSGSRLAAQQQMEGLLAPHRPKEPAWFLATVGVSPDHQGKGLGSAVVLPGVEAAERAGVPAFLETSAPRNLPFYERLGFTVTADVEVPEGPRTWCMTRKPGA
  NFAT-GFP ASSAY Positive Cell lines: HepG2: HepG2 (+)

B3: 051816-Z01 (protein)
chain: MALPVTALLLPLALLLHAARPDVQMIQTPSSLSASLGDRVTISCRASQDIGNYLNWYQQKPDGTVKLLIYYTSRLHSGVPSRFSGSGSGTEYSLTISNLEQEDIATYFCQQGSALPPTFGGGTKLEINLEGKPIPNPLLGLDSTGSGEDLKNVFPPEVAVFEPSKAEIAHTQKATLVCLATGFYPDHVELSWWVNGKEVHSGVCTDPQPLKEQPALNDSRYCLSSRLRVSATFWQNPRNHFRCQVQFYGLSENDEWTQDRAKPVTQIVSAEAWGRADCGITSASYHQGVLSATILYEILLGKATLYAVLVSALVLMAMVKRKDSRGRAKRSGSGATNFSLLKQAGDVEENPGPTSMDWIWRILFLVGAATGAHSFEALQLQQSGAELVRPGASVTLSCKASGYTFTDYEMHWVKQTPVHGLEWIGAIDPETGGTAYNQKFEGKAILTADKSSSTAYMELRSLTSEDSPVYYCARRRYYGSSSFDYWGQGTTLTVSSTREQKLISEEDGSGIQNPDPAVYQLRDSKSSDKSVCLFTDFDSQTNVSQSKDSDVYITDKCVLDMRSMDFKSNSAVAWSNKSDFACANAFNNSIIPEDTFFPSSDVPCDVKLVEKSFETDTNLNFQNLSVIGFRILLLKVAGFNLLMTLRLWSSRAKRSGSGVKQTLNFDLLKLAGDVESNPGPSRGHMTEYKPTVRLATRDDVPRAVRTLAAAFADYPATRHTVDPDRHIERVTELQELFLTRVGLDIGKVWVADDGAAVAVWTTPESVEAGAVFAEIGPRMAELSGSRLAAQQQMEGLLAPHRPKEPAWFLATVGVSPDHQGKGLGSAVVLPGVEAAERAGVPAFLETSAPRNLPFYERLGFTVTADVEVPEGPRTWCMTRKPGA
modifications: Synthetic Immune Receptor (SIR)
SIR-expressing Jurkat-NFAT-GFP cells cocultured with LAN5
  NFAT-GFP ASSAY Positive Cell lines: LAN5: LAN5 (2+)

B4: 012617-M05 (protein)
chain: MALPVTALLLPLALLLHAARPLEGKPIPNPLLGLDSTGSGEDLKNVFPPEVAVFEPSKAEIAHTQKATLVCLATGFYPDHVELSWWVNGKEVHSGVCTDPQPLKEQPALNDSRYCLSSRLRVSATFWQNPRNHFRCQVQFYGLSENDEWTQDRAKPVTQIVSAEAWGRADCGITSASYHQGVLSATILYEILLGKATLYAVLVSALVLMAMVKRKDSRGRAKRSGSGATNFSLLKQAGDVEENPGPTSMALPVTALLLPLALLLHAARPQSVLTQPASVSGSPGQSITISCTGTSSDVGGYNYVSWYQQHPGKAPKLMIYDVNNRPSEVSNRFSGSKSGNTASLTISGLQAEDEADYYCSSYTTGSRAVFGGGTKLTVLGGGGGSGGGGSGGGGSEVQLVQSGAEVKKPGESLTISCKASGYSFPNYWITWVRQMSGGGLEWMGRIDPGDSYTTYNPSFQGHVTISIDKSTNTAYLHWNSLKASDTAMYYCARYYVSLVDIWGQGTLVTVSSTREQKLISEEDGSGIQNPDPAVYQLRDSKSSDKSVCLFTDFDSQTNVSQSKDSDVYITDKCVLDMRSMDFKSNSAVAWSNKSDFACANAFNNSIIPEDTFFPSSDVPCDVKLVEKSFETDTNLNFQNLSVIGFRILLLKVAGFNLLMTLRLWSSRAKRSGSGVKQTLNFDLLKLAGDVESNPGPSRGHMTEYKPTVRLATRDDVPRAVRTLAAAFADYPATRHTVDPDRHIERVTELQELFLTRVGLDIGKVWVADDGAAVAVWTTPESVEAGAVFAEIGPRMAELSGSRLAAQQQMEGLLAPHRPKEPAWFLATVGVSPDHQGKGLGSAVVLPGVEAAERAGVPAFLETSAPRNLPFYERLGFTVTADVEVPEGPRTWCMTRKPGA
  NFAT-GFP ASSAY Positive Cell lines: HepG2: HepG2 (2+)
